One experiment has as its target collagen type I. The experiment is described as follows: cell-based or functional assay.
The target of experiment [1] is baboon platelet GPVI (baboon). The experiment is described as follows: flow cytometry, washed baboon platelets (positive control). On the technique in general: In flow cytometry, cells or beads pass a laser one at a time.

Consider two molecules from US20040253236A1.

In the experiment with collagen type I, “recombinant human soluble GPVI:Fc (rhusGPVI:Fc) (from UniProt Q9HCN6 21-269) (Fc fusion)” returned a concentration of rhusGPVI:Fc needed to inhibit collagen-induced versus Cvx-induced platelet activation of 10 fold.

B1: convulxin (Cvx), purified from the venom of Crotalus durissus terrificus (ligand)
chain 1: GLHCPSDWYYYDQHCYRIFNEEMNWEDAEWFCTKQAKGAHLVSIKSAKEADFVAWMVTQNIEESFSHVSIGLRVQNKEKQCSTKWSDGSSVSYDNLLDLYITKCSLLKKETGFRKWFVASCIGKIPFVCKFPPQC
chain 2: GFCCPSHWSSYDRYCYKVFKQEMTWADAEKFCTQQHTGSHLVSFHSTEEVDFVVKMTHQSLKSTFFWIGANNIWNKCNWQWSDGTKPEYKEWHEEFECLISRTFDNQWLSAPCSDTYSFVCKFEA
With B1, in experiment [1], the Baboon fluorescence intensity was found to be 72 and the Baboon platelets % positive was 95%.
